In patent publication US20190292537, “Prokaryotic Argonaute Proteins and Uses Thereof” (Wageningen Universiteit, published 2019):

Columns and labels:
Conditions in all cases: tags: His-MBP N-terminal (TEV added during purification)
CbAgo [1] = molecular target: T1, CbAgo (Clostridium butyricum, UniProt P0DYD1 SEQ:1-748); assay: EMSA; DNA guide, RNA target, 37 C
Experimental: (§1) CbAgo (10 pmol) was pre-incubated with the desired polynucleotide guide (RNA guide: 7024, DNA guide: 3466, 10 pmol) for 5 min at 37° C. This was followed by addition of a target polynucleotide (RNA target: […]: 7043, 10 pmol) and another incubation step of 5 min at 37° C. The reactions were then resolved on a 6% Native PAGE gel and stained with SYBR gold.

CbAgo [2] = molecular target: T1, CbAgo; assay: EMSA; RNA guide, RNA target, 37 C
Experimental: as §1

CbAgo [3] = molecular target: T1, CbAgo; assay: EMSA; DNA guide preloaded, 37 C; target printed as 7043 in text, 7023 in Table 2
Experimental: as §1

CbAgo [4] = molecular target: T1, CbAgo; assay: EMSA; RNA guide, DNA target, 37 C; target printed as 7043 in text, 7023 in Table 2
Experimental: as §1

B1: DNA guide 3466 ; RNA target 7022 (ssDNA ; ssRNA)
DNA: TGAGGTAGTAGGTTGTATAGT
RNA: AAACGACGGCCAGUGCCAAGCUUACUAUACAACCUACUACCUCAU
modifications: 5'-phosphate ; 5'-phosphate
- binding result (CbAgo [1]): binds

B2: RNA guide 7024 ; RNA target 7022 (ssRNA ; ssRNA)
RNA 1: UGAGGUAGUAGGUUGUAUAGU
RNA 2: AAACGACGGCCAGUGCCAAGCUUACUAUACAACCUACUACCUCAU
modifications: 5'-phosphate ; 5'-phosphate
- binding result (CbAgo [2]): binds

B3: DNA guide 3466 ; DNA target 7023 (ssDNA ; ssDNA)
DNA 1: TGAGGTAGTAGGTTGTATAGT
DNA 2: AAACGACGGCCAGTGCCAAGCTTACTATACAACCTACTACCTCAT
modifications: 5'-phosphate ; 5'-phosphate
- binding result (CbAgo [3]): binds

B4: RNA guide 7024 ; DNA target 7023 (ssRNA ; ssDNA)
RNA: UGAGGUAGUAGGUUGUAUAGU
DNA: AAACGACGGCCAGTGCCAAGCTTACTATACAACCTACTACCTCAT
modifications: 5'-phosphate ; 5'-phosphate
- binding result (CbAgo [4]): binds
